Assay in all cases: Kinase Profiling Assay
Common to all, as to assay type: biochemical
Holding throughout (conditions): 100 μM

One assay concerns the target T1, eEF-2K (h) (Homo sapiens, UniProt O00418).
T1 construct: purchased Millipore
The method, boiled down:
(§1)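 Radiometric filter-binding format: cationic substrate takes up labeled phosphate from ATP unless the inhibitor peptide blocks the kinase. Substrate bound to an anionic filter, scintillation-counted, normalized to 100% activity control. Duplicates; part of a 266-kinase selectivity panel for MK2 peptides.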

Another assay deals with T2, CaMKIIδ (h) (Homo sapiens, UniProt Q13557).
T2 construct: purchased Millipore
T2 sequence (Q13557 whole entry): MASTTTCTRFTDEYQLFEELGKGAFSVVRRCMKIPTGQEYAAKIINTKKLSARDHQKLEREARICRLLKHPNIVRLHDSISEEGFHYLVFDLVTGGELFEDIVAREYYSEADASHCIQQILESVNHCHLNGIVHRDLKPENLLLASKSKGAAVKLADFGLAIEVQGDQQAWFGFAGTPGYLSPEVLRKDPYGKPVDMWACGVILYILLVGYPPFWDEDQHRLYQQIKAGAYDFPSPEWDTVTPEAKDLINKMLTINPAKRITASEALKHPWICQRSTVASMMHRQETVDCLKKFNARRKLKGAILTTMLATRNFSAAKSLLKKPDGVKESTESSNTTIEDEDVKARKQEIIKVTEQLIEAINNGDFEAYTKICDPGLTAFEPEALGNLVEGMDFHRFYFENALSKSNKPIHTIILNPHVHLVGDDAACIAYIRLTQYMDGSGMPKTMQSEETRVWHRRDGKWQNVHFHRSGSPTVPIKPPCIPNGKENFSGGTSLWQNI
The method, boiled down: as §1

The target of another assay is T3, TSSK1 (h) (Homo sapiens, UniProt Q9BXA7).
T3 sequence (Q9BXA7 1-367): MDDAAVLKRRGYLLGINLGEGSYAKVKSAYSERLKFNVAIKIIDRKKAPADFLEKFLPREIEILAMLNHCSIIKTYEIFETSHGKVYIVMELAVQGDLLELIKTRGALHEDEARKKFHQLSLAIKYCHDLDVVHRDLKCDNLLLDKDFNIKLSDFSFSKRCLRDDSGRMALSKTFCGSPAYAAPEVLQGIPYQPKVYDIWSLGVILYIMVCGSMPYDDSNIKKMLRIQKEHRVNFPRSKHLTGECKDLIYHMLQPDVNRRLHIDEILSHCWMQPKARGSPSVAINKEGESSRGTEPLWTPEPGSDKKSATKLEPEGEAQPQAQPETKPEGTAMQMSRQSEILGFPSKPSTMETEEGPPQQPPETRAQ
A digest of the protocol:
as §1

The target of another assay is T4, PAK4 (h) (Homo sapiens, UniProt O96013).
T4 construct: purchased Millipore
T4 sequence (O96013 whole entry): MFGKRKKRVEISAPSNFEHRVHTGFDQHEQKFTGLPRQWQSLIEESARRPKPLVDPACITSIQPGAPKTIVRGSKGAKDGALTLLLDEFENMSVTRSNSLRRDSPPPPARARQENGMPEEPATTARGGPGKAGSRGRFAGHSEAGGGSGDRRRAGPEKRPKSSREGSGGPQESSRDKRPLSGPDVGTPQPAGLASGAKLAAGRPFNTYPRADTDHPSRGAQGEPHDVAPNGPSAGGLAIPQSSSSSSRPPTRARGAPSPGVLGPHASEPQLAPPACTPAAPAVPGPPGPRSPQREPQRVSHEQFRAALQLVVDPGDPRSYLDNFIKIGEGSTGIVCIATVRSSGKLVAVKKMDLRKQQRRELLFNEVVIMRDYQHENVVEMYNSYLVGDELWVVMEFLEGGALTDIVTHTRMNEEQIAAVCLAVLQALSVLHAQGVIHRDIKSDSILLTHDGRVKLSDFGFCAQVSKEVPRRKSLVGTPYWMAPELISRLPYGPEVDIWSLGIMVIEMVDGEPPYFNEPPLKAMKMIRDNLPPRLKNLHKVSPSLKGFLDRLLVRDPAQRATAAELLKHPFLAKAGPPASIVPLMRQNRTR
A digest of the protocol:
as §1

The target of another assay is Rsk3 (h) (Homo sapiens, UniProt Q15349). A digest of the protocol:
as §1

A further assay concerns the target SAPK2a(T106M) (h) (Homo sapiens, UniProt Q16539, T106M). A digest of the protocol:
as §1

A further assay concerns the target T5, PDGFRβ (h) (Homo sapiens, UniProt P09619).
T5 construct: purchased Millipore
The method, boiled down: as §1

The next assay addresses EphA4 (h) (Homo sapiens, UniProt P54764). A digest of the protocol: as §1
For the next assay, the target named is T6, CDK3/cyclinE (h) (Homo sapiens, UniProt Q00526).
T6 construct: purchased Millipore
T6 sequence (Q00526 whole entry): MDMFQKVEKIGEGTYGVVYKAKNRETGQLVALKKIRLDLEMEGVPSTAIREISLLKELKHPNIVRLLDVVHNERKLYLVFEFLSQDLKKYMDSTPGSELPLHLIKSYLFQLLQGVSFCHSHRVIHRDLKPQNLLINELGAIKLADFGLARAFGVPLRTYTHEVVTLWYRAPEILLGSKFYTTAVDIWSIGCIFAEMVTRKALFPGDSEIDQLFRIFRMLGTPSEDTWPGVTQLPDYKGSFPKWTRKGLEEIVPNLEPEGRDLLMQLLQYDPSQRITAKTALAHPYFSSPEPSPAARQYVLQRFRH
T6 sequence (P24864 whole entry partner): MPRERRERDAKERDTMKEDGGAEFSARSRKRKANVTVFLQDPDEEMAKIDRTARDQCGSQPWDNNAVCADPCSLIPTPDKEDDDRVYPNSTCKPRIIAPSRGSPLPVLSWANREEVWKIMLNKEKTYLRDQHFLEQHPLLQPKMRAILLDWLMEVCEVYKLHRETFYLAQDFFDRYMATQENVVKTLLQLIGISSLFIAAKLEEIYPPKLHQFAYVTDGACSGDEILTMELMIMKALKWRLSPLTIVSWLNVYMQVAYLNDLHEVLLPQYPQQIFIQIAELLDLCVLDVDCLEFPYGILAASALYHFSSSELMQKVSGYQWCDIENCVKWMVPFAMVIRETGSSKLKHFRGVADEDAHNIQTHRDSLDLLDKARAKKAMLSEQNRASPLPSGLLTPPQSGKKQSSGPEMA
A digest of the protocol: as §1

The next assay concerns the target T7, PAK2 (h) (Homo sapiens, UniProt Q13177).
T7 construct: purchased Millipore
The method, boiled down: as §1

Another assay addresses T8, BrSK1 (h) (Homo sapiens, UniProt Q8TDC3).
T8 sequence (Q8TDC3 1-778): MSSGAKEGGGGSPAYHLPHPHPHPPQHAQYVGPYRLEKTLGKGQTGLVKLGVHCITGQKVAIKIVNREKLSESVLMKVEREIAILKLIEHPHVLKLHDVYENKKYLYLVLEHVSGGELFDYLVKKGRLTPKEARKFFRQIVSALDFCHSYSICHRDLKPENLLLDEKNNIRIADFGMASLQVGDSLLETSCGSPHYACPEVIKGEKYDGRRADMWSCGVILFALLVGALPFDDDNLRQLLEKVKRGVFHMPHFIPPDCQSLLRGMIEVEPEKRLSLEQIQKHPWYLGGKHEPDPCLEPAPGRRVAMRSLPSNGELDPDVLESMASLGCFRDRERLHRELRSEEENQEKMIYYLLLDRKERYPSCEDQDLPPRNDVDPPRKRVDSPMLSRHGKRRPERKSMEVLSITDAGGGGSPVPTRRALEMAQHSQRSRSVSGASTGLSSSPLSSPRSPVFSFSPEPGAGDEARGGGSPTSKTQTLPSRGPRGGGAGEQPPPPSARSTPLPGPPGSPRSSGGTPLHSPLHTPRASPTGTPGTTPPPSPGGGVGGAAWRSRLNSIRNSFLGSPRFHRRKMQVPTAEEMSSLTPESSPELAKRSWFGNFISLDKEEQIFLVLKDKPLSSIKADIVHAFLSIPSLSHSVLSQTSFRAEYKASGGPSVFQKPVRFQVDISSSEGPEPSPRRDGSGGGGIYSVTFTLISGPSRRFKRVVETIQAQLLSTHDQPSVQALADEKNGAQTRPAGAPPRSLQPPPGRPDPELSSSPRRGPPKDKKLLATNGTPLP
The method, boiled down:
as §1

Another assay concerns the target T9, SAPK4 (h) (Homo sapiens, UniProt O15264).
T9 sequence (O15264 1-365): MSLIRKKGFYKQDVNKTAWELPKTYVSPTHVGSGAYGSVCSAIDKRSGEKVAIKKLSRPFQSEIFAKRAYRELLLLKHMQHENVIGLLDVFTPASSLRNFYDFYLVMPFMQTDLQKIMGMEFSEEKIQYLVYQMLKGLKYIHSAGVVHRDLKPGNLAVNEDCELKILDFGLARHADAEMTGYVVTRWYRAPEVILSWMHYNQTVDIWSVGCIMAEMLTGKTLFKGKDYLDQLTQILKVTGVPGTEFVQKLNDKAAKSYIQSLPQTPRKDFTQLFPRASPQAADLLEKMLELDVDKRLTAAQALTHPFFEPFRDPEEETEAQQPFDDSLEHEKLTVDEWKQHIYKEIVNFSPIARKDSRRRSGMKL
The method, boiled down: as §1

For the next assay, the target named is T10, mTOR/FKBP12 (h) (Homo sapiens, UniProt P42345).
T10 construct: purchased Millipore
A digest of the protocol:
as §1

A further assay has as its target T11, EGFR(L858R) (h) (Homo sapiens, UniProt P00533, L858R).
T11 construct: purchased Millipore
The method, boiled down:
as §1

The target in the next assay is Met(Y1248D) (h) (Homo sapiens, UniProt P08581, Y1230D). The method, boiled down:
as §1

Here are results for four sequences from US10500249B2, “Compositions and methods for preventing or treating diseases, conditions, or processes characterized by aberrant fibroblast proliferation and extracellular matrix deposition” (MOERAE MATRIX, INC., priority 2014, dated 2019).

Sequence of Rsk3 (h) (Q15349 whole entry): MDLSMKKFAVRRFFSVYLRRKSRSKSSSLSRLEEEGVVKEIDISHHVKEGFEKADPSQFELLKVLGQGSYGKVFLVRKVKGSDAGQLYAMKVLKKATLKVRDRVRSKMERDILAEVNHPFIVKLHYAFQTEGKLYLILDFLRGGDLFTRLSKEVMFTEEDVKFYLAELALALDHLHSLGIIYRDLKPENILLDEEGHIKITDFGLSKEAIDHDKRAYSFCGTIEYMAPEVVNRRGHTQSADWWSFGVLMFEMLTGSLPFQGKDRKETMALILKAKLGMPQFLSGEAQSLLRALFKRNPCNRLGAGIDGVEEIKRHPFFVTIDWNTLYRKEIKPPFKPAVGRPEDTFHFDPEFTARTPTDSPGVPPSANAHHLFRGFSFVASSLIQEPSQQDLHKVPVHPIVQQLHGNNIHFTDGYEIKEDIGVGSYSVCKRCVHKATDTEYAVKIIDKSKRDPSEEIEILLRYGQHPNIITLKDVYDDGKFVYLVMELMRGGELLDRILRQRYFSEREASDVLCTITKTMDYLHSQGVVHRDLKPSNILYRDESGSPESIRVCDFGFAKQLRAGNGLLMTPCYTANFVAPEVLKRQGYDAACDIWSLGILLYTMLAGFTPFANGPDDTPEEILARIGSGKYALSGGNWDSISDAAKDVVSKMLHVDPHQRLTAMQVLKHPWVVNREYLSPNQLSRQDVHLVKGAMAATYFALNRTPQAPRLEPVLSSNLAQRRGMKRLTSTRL
T5 sequence (P09619 33-1106): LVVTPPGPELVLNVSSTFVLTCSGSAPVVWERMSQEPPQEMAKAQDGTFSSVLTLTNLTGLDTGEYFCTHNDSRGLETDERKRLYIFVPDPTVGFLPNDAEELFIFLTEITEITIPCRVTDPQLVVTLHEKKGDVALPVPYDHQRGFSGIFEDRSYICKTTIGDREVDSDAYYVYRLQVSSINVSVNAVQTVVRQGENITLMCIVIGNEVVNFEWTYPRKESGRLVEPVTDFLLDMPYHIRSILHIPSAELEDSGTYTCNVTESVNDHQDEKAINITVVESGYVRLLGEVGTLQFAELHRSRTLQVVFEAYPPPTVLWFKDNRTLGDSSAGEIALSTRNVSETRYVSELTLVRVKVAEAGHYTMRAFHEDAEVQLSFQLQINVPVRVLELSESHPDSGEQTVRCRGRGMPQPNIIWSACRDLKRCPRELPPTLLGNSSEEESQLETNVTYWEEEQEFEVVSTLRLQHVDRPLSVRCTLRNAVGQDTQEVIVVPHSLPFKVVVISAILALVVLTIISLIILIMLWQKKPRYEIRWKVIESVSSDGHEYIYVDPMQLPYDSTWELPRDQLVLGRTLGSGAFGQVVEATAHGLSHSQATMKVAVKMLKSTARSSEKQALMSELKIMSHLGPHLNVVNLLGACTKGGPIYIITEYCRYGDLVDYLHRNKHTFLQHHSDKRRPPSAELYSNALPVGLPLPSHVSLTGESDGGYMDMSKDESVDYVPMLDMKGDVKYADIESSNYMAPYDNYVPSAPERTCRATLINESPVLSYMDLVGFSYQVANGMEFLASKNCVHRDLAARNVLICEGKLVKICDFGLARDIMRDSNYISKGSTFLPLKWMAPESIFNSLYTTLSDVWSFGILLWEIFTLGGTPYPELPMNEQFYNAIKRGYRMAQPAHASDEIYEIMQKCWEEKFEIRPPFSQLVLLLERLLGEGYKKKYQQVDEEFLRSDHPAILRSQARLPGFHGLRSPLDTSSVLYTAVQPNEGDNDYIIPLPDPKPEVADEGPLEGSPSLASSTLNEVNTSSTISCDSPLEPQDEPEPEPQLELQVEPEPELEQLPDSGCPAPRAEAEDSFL
Sequence of SAPK2a(T106M) (h) (Q16539 whole entry T106M): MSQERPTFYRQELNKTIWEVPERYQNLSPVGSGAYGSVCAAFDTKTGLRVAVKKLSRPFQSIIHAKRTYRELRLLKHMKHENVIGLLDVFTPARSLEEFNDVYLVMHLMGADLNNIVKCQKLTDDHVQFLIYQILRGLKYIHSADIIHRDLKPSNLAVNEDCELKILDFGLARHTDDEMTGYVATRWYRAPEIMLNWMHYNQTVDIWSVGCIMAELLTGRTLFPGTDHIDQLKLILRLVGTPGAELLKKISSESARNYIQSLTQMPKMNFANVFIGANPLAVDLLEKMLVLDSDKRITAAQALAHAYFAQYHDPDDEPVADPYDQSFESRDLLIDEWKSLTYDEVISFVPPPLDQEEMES
Sequence of EphA4 (h) (P54764 20-986): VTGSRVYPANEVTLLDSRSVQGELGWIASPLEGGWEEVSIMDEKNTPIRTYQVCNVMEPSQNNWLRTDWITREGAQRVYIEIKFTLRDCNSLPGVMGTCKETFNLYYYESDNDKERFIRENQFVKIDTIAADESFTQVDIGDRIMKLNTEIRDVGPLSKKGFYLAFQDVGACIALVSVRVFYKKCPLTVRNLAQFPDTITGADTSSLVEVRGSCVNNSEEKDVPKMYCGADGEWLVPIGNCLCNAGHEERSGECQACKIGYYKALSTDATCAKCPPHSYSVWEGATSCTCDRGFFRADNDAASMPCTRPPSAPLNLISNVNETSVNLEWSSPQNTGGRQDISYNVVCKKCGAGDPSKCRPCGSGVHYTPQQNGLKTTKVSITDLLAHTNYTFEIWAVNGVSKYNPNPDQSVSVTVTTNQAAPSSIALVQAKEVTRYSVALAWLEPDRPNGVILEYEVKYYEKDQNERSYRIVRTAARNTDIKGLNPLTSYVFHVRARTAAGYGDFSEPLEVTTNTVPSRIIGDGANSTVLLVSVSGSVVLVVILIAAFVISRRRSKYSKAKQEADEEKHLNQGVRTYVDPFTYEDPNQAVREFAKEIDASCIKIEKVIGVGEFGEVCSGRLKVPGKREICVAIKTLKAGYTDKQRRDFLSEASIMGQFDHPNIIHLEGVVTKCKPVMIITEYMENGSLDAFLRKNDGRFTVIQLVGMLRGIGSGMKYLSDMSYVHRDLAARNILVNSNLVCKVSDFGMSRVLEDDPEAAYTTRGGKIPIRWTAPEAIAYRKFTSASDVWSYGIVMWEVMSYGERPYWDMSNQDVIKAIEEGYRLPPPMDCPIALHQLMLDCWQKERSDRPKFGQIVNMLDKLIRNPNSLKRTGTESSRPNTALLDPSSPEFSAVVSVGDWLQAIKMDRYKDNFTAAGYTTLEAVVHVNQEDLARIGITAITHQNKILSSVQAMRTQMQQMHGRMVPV

Take FAKLAARLYRKALARQLGVAA [MMI-0300]: the “% activity” value in the assay with eEF-2K (h) was determined as 91%; with CaMKIIδ (h), 1%; in the assay with TSSK1 (h) it was 79%; with PAK4 (h), 94%; with Rsk3 (h) it was 76%; with SAPK2a(T106M) (h), 97%. Moreover, the “% activity” value with PDGFRβ (h) came out at 81%; with EphA4 (h), 88%; with CDK3/cyclinE (h) it was 94%; with PAK2 (h) it was 65%; with BrSK1 (h), 67%; with SAPK4 (h), 96%. In the assay with mTOR/FKBP12 (h), the “% activity” value turned out to be 145%.
On to KAFAKLAARLYRKALARQLGVAA [MMI-0400], for which the “% activity” value with eEF-2K (h) is reported as 43%; with CaMKIIδ (h) it was 2%; in the assay with TSSK1 (h), 79%; in the assay with PAK4 (h), 89%; with EGFR(L858R) (h), 52%; with Rsk3 (h) it was 71%. Also, the “% activity” value with SAPK2a(T106M) (h) was determined as 99%; with PDGFRβ (h) it was 53%; with EphA4 (h), 65%; with CDK3/cyclinE (h) it was 92%; in the assay with PAK2 (h), 59%; with Met(Y1248D) (h), 31%. The entries for the “% activity” value in the assay with BrSK1 (h), with SAPK4 (h) and with mTOR/FKBP12 (h) were 76%, 91% and 125%, respectively.
With “YARAAARQARAKALNRQLGVA (Mammalian) [MMI-0200]”, the “% activity” value with CaMKIIδ (h) is 2%; with TSSK1 (h), 98%; in the assay with PAK4 (h) it was 98%; with EGFR(L858R) (h), 120%; in the assay with SAPK2a(T106M) (h) it was 100%; in the assay with PDGFRβ (h), 137%. In addition, the “% activity” value came to 127% with EphA4 (h); 69% with PAK2 (h); 118% with Met(Y1248D) (h); 93% with BrSK1 (h); 118% with mTOR/FKBP12 (h).
“HRRIKAWLKKIKALARQLGVAA (Mammalian) [MMI-0500]”: the “% activity” value with eEF-2K (h) was found to be 43%; in the assay with CaMKIIδ (h), 1%; with TSSK1 (h) it was 46%; with PAK4 (h), 86%; in the assay with EGFR(L858R) (h), 26%; with Rsk3 (h), 23%. Moreover, the “% activity” value in the assay with SAPK2a(T106M) (h) stood at 32%; with PDGFRβ (h), 40%; with EphA4 (h), 48%; with CDK3/cyclinE (h) it was 8%; in the assay with PAK2 (h) it was 44%; in the assay with Met(Y1248D) (h), 218%. Also, the “% activity” value with BrSK1 (h) is on record as 72%; with SAPK4 (h), 48%; with mTOR/FKBP12 (h) it was 140%.
